Measurements published in the Human Domainome abundance scans (Beltran et al. 2025).
± gives the uncertainty stated by the source.

B1: Ventral anterior homeobox 1, residues 102 to 157; numbered along this chain, Q5SQQ9 (parent)
chain: RTRTSFTAEQLYRLEMEFQRCQYVVGRERTELARQLNLSETQVKVWFQNRRTKQKK

Variants of: B1
Experiment: abundance fitness (aPCA) (normalised: wild type 0, dead -1); higher = more abundant; growth selection in yeast, the domain comes from the species named
Settings: Homo sapiens

Variant | abundance fitness
K53I | -0.02 ± 0.28
K53Y | 0.292 ± 0.43
K53D | 0.209 ± 0.19
K53W | -0.04 ± 0.14
K53Q | 0.115 ± 0.19
K53V | 0.137 ± 0.12
W46G | -0.778 ± 0.14
W46F | -0.406 ± 0.37
L32Q | -0.959 ± 0.34
L32G | -1.21 ± 0.43
E17T | -0.297 ± 0.23
E17M | -0.281 ± 0.23
E17C | -0.209 ± 0.22
E17Q | -0.296 ± 0.27
L11M | -0.172 ± 0.19
L11R | -0.61 ± 0.12
L11I | -0.059 ± 0.21
L11A | -0.075 ± 0.096
L11D | 0.022 ± 0.12
L11N | 0.18 ± 0.17
L11P | -0.893 ± 0.17
E9Q | -0.207 ± 0.21
E9L | -0.439 ± 0.11
E9H | -0.509 ± 0.25
E9Y | -0.398 ± 0.23

Variant | abundance fitness
E9R | -0.455 ± 0.11
C21Q | -0.37 ± 0.27
C21G | -0.16 ± 0.2
C21E | -0.101 ± 0.2
C21K | -0.169 ± 0.31
C21T | -0.019 ± 0.35
C21M | -0.434 ± 0.27
C21D | 0.16 ± 0.47
T7I | -0.56 ± 0.21
T7D | -0.043 ± 0.18
T7R | -0.499 ± 0.11
T7Y | -0.652 ± 0.34
T7W | -0.925 ± 0.25
T7C | -0.335 ± 0.18
T4H | -0.49 ± 0.28
T4M | 0.107 ± 0.23
T4A | -0.188 ± 0.17
T4N | 0.033 ± 0.23
T4E | 0.169 ± 0.15
E31R | -0.657 ± 0.12
E31L | -0.5 ± 0.15
E31N | 0.028 ± 0.41
E31D | -0.234 ± 0.29
E31H | -0.468 ± 0.3
V43D | -0.691 ± 0.37

Variant | abundance fitness
V43R | -0.793 ± 0.18
V43F | -0.765 ± 0.32
V43A | -0.679 ± 0.28
V43P | -0.723 ± 0.33
E40H | -1.01 ± 0.38
E40W | -0.736 ± 0.22
E40A | -0.215 ± 0.16
E40G | -0.413 ± 0.098
E40C | -0.226 ± 0.22
E40Q | -0.507 ± 0.19
V25I | -0.226 ± 0.2
V25F | -0.073 ± 0.22
V25H | -0.011 ± 0.29
V25Y | -0.377 ± 0.29
V25E | 0.204 ± 0.17
V25T | -0.087 ± 0.12
V25G | 0.003 ± 0.11
F18W | -0.181 ± 0.14
L36E | -0.983 ± 0.26
L36V | -0.173 ± 0.089
L36A | -0.601 ± 0.12
T52E | 0.139 ± 0.16
T52H | -0.279 ± 0.23
T52D | 0.154 ± 0.19
Q54C | -0.252 ± 0.2

Variant | abundance fitness
Q54R | -0.237 ± 0.084
Q54S | -0.125 ± 0.1
Q54N | -0.202 ± 0.3
K56Y | -0.039 ± 0.19
K56E | 0.12 ± 0.33
K56I | 0.003 ± 0.39
K56H | -0.159 ± 0.27
K56G | 0.324 ± 0.18
K56P | 0.143 ± 0.36
Q22E | 0.024 ± 0.16
Q22N | -0.285 ± 0.27
Q22L | -0.437 ± 0.13
Q22W | -0.383 ± 0.17
F6V | -0.105 ± 0.14
F6P | -0.337 ± 0.2
F6M | 0.049 ± 0.22
F6H | -0.283 ± 0.25
F6S | -0.729 ± 0.14
F6I | -0.089 ± 0.27
F6T | -0.556 ± 0.16
R3H | 0.229 ± 0.098
R3C | 0.211 ± 0.11
R3G | 0.223 ± 0.095
R3N | 0.268 ± 0.098
R3Y | 0.071 ± 0.1

Variant | abundance fitness
R3F | 0.209 ± 0.098
R3W | 0.054 ± 0.16
N37G | -0.04 ± 0.12
N37W | -0.605 ± 0.2
N37K | -0.092 ± 0.22
N37F | -0.183 ± 0.42
N37D | -0.049 ± 0.2
Y23S | 0.03 ± 0.15
Y23N | 0.069 ± 0.46
Y23W | -0.527 ± 0.35
Y23I | -0.117 ± 0.29
Y23D | -0.164 ± 0.42
Y23Q | 0.132 ± 0.34
Y23L | 0.055 ± 0.15
K44H | -0.26 ± 0.24
K44W | -0.167 ± 0.12
K44Q | -0.091 ± 0.14
K44A | 0.038 ± 0.12
K44D | 0.129 ± 0.23
K44M | -0.079 ± 0.14
Q35N | -0.206 ± 0.24
Q35F | -0.292 ± 0.21
Q35T | -0.205 ± 0.23
Q35S | 0.037 ± 0.12
Q35K | 0.093 ± 0.18

Variant | abundance fitness
T30H | -0.261 ± 0.34
T30R | -0.429 ± 0.16
T30W | -0.117 ± 0.32
T30M | -0.225 ± 0.3
T30E | 0.018 ± 0.23
T30N | -0.097 ± 0.34
R20I | -0.386 ± 0.28
R20L | -0.223 ± 0.14
R20V | -0.162 ± 0.12
R20K | -0.428 ± 0.24
E28I | -0.657 ± 0.29
E28W | -0.483 ± 0.19
E28A | -0.318 ± 0.12
E28P | -0.171 ± 0.22
E15N | -0.564 ± 0.24
E15A | -0.876 ± 0.17
E15M | -0.982 ± 0.27
E15R | -0.787 ± 0.13
E15F | -0.533 ± 0.33
E15P | -1.07 ± 0.36
L38W | -0.861 ± 0.17
